The values below come from PMC12355267, “Human Helicase DDX5 is Hijacked by SARS-CoV‑2 Nsp13 Helicase to Enhance RNA Unwinding” (ACS Omega, 2025).

The target in the assay is T1, SARS-CoV-2 Nsp13 helicase (SARS-CoV-2, UniProt P0DTD1 5325-5925).
T1 construct: also called Nsp13 helicase of SARS-CoV-2
Description: BLI. The following applies: both partners purified.

B1: DDX5ΔC (1–484) (domain or fragment, human, UniProt P17844 1-484, looked up)
chain: MSGYSSDRDRGRDRGFGAPRFGGSRAGPLSGKKFGNPGEKLVKKKWNLDELPKFEKNFYQEHPDLARRTAQEVETYRRSKEITVRGHNCPKPVLNFYEANFPANVMDVIARQNFTEPTAIQAQGWPVALSGLDMVGVAQTGSGKTLSYLLPAIVHINHQPFLERGDGPICLVLAPTRELAQQVQQVAAEYCRACRLKSTCIYGGAPKGPQIRDLERGVEICIATPGRLIDFLECGKTNLRRTTYLVLDEADRMLDMGFEPQIRKIVDQIRPDRQTLMWSATWPKEVRQLAEDFLKDYIHINIGALELSANHNILQIVDVCHDVEKDEKLIRLMEEIMSEKENKTIVFVETKRRCDELTRKMRRDGWPAMGIHGDKSQQERDWVLNEFKHGKAPILIATDVASRGLDVEDVKFVINYDYPNSSEDYIHRIGRTARSTKTGTAYTFFTPNNIKQVSDLISVLREANQAINPKLLQLVEDRGSGRSR
notes: human DDX5 without the flexible C-terminal end, residues 1-484; also called C-terminal truncated form of DDX5; source: E. coli (gene optimized for E. coli expression, pETM-13), purified
For B1, the binding result is on record as “binds”.
